Results published in patent US11135246B2, “Peptides and combination of peptides for use in immunotherapy against leukemias and other cancers” (Immatics Biotechnologies GmbH, priority 2017, dated 2021).

Legend:
HLA-B*07:02 = HLA-B*07:02 (Homo sapiens, UniProt P01889); experiment: MHC binding assay, UV-ligand exchange with β2m ELISA, HLA-B*07:02; details: binding to HLA-B*07:02, UV-ligand exchange
From the text: (§1) Candidate peptides for T cell based therapies according to the present invention were further tested for their MHC binding capacity (affinity). The individual peptide-MHC complexes were produced by UV-ligand exchange, where a UV-sensitive peptide is cleaved upon UV-irradiation, and exchanged with the peptide of interest as analyzed. Only peptide candidates that can effectively bind and stabilize the peptide-receptive MHC molecules prevent dissociation of the MHC complexes. To determine the yield of the exchange reaction, an ELISA was performed based on the detection of the light chain (β2m) of stabilized MHC complexes. The assay was performed as generally described in Rodenko et al. (Rodenko et al., 2006).
(§2) 96 well MAXISorp plates (NUNC) were coated over night with 2 ug/ml streptavidin in PBS at room temperature, washed 4× and blocked for 1 h at 37° C. in 2% BSA containing blocking buffer. Refolded HLA-A*02:01/MLA-001 monomers served as standards, covering the range of 15-500 ng/ml. Peptide-MHC monomers of the UV-exchange reaction were diluted 100-fold in blocking buffer. Samples were incubated for 1 h at 37° C., washed four times, incubated with 2 ug/ml HRP conjugated anti-β2m for 1 h at 37° C., washed again and detected with TMB solution that is stopped with […]. Absorption was measured at 450 nm. Candidate peptides that show a high exchange yield (preferably higher than 50%, most preferred higher than 75%) are generally preferred for a generation and production of antibodies or fragments thereof, and/or T cell receptors or fragments thereof, as they show sufficient avidity to the MHC molecules and prevent dissociation of the MHC complexes.

HLA-B*44:02 = HLA-B*44:02 (Homo sapiens, UniProt P01889, A223V/A65T/A93T/A95T/D201E/D98Y/E176V/E187L/E204Q/E69K/G107R/H137Y/K202T/L105A/L119I/N104T/N87E/Q56L/Q94N/R106L/R155S/R180D/S101N/S121R/S35A/S48T/T118I/V36M/W191S/Y140D/Y91S); experiment: MHC binding assay, UV-ligand exchange with β2m ELISA, HLA-B*44:02; details: binding to HLA-B*44:02, UV-ligand exchange
From the text: as §1, §2

Substance	Peptide exchange (MHC class I binding score, peptide exchange yield) (HLA-B*07:02)	Peptide exchange (MHC class I binding score, peptide exchange yield) (HLA-B*44:02)
103 (IPANTEKASF; listed as Homo sapiens) [compound 103]	“++” (>20% = ++)	
99 (SPRAINNLVL; listed as Homo sapiens) [compound 99]	“++++” (>75% = ++++)	
234 (SPKESENAL; listed as Homo sapiens) [compound 234]	“++” (>20% = ++)	
236 (RPSNKAPLL; listed as Homo sapiens) [compound 236]	“+++” (>50 = +++)	
228 (SPRITFPSL; listed as Homo sapiens) [compound 228]	“++++” (>75% = ++++)	
92 (KAKKPAGAA; listed as Homo sapiens) [compound 92]	“++” (>20% = ++)	
253 (RPFADLLGTAF; listed as Homo sapiens) [compound 253]	“+++” (>50 = +++)	
250 (VPNLQTVSV; listed as Homo sapiens) [compound 250]	“++” (>20% = ++)	
231 (MPLSTIREV; listed as Homo sapiens) [compound 231]	“++” (>20% = ++)	
163 (EEWMGLLEY; listed as Homo sapiens) [compound 163]		“++++” (>75% = ++++)
142 (TEIFKEHNF; listed as Homo sapiens) [compound 142]		“++” (>20% = ++)
272 (KEFELRSSW; listed as Homo sapiens) [compound 272]		“+++” (>50 = +++)
130 (EEEHGKGREY; listed as Homo sapiens) [compound 130]		“++” (>20% = ++)
125 (SESTFDRTF; listed as Homo sapiens) [compound 125]		“+++” (>50 = +++)
263 (REAGFQVKAY; listed as Homo sapiens) [compound 263]		“+++” (>50 = +++)
159 (GELLGRQSF; listed as Homo sapiens) [compound 159]		“+++” (>50 = +++)
266 (VDASIFKAW; listed as Homo sapiens) [compound 266]		“++” (>20% = ++)
144 (TEGKRYFTW; listed as Homo sapiens) [compound 144]		“+++” (>50 = +++)
171 (SEDLAVHLY; listed as Homo sapiens) [compound 171]		“++” (>20% = ++)
140 (EYDLKWEF; listed as Homo sapiens) [compound 140]		“++” (>20% = ++)
175 (HEIDGKALFL; listed as Homo sapiens) [compound 175]		“++” (>20% = ++)
135 (NEIKVYITF; listed as Homo sapiens) [compound 135]		“+++” (>50 = +++)
154 (AEPGPVITW; listed as Homo sapiens) [compound 154]		“+++” (>50 = +++)
179 (AEIKQTEEKY; listed as Homo sapiens) [compound 179]		“++” (>20% = ++)
133 (AEHNFVAKA; listed as Homo sapiens) [compound 133]		“+++” (>50 = +++)
